This passage reports Kd results from US5472841.

The target of this data set is T1, Human neutrophil elastase (Homo sapiens) (UniProt P08246).
T1 sequence: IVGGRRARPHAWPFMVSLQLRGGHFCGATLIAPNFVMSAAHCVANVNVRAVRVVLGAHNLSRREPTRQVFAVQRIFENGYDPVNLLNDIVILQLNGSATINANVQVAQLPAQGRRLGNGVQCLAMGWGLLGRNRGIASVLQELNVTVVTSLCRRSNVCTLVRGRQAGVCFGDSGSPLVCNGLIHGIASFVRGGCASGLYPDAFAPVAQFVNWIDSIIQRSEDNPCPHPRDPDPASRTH
The data set is described as follows: filter. Conditions: apparent Kd.

For the sequence “CCCCTGCAGGTGATTTTGCTCAAGTNNNNNNNNNNNNNNNNNNNNNNNNNNNNNNNNNNNNNNNNAGTATCGCTAATCAGGCGGATC [random ssDNA pool]”, the Kd was found to be 250 nM.
